What all share (experiment): SPR, antibody captured, C2 as analyte;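 further: biacore SPR at 37 °C, anti-C2 mAbs captured via goat anti-human IgG on CM5 chips, double-referenced sensorgrams fit to a 1:1 kinetic or steady-state model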
The target of one assay is T1, human C2 P724A (human, UniProt P06681 21-752).
T1 sequence: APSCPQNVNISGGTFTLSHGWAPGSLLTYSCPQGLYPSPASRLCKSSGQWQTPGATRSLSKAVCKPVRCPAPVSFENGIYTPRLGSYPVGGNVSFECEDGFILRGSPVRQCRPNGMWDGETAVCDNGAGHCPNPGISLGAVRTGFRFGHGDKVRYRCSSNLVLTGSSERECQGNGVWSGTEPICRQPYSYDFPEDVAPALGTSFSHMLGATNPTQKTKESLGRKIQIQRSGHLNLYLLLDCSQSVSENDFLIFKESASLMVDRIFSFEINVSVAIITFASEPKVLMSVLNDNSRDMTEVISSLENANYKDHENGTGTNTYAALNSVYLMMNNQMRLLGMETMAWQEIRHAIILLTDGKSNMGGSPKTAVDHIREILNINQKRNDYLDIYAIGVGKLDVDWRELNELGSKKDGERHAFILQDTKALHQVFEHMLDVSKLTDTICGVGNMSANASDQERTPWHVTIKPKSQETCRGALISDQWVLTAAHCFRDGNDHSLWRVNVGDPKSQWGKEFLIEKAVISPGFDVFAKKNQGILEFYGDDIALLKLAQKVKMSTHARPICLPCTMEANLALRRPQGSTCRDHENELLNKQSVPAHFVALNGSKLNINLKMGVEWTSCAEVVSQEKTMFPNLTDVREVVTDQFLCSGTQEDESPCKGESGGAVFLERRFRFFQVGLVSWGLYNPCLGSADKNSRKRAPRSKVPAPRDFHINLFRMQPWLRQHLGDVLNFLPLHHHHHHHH

In a further assay the target is T2, human C2 G466A (human, UniProt P06681 21-752).
T2 sequence: T1 sequence with G446A, A704P

For another assay, the target named is T3, human C2 V418A (human, UniProt P06681 21-752).
T3 sequence: T1 sequence with V398A, A704P

The target of a further assay is T4, human C2 W420A (human, UniProt P06681 21-752).
T4 sequence: T1 sequence with W400A, A704P

This is an account of results in patent US20220332804A1 (CSL INNOVATION, published 2022).

Substitutions are numbered along the chain they refer to.

B1: RF16-226 (antibody, human IgG4 S228P, lambda)
heavy: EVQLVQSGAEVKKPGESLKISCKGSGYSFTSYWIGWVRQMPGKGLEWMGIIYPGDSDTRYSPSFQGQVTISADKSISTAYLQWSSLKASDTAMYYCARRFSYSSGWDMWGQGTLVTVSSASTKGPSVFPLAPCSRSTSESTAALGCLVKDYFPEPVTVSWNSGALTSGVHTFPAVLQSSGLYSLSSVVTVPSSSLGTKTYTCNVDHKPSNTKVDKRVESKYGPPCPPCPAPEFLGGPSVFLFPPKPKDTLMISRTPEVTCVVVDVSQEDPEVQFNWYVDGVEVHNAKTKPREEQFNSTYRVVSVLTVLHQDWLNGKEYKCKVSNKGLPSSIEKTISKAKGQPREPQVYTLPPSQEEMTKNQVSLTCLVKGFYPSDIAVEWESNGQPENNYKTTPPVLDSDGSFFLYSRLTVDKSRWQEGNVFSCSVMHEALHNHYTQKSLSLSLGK
light: SYELTQPPSVSVSPGQTARITCSGDALTSKYVAWYQQKSGLAPLLVIYEDTRRPSGIPAKFSGSSSGSVATLTISGAHGDDEADYYCYSTDASGHQRVFGGGTKLTVLSQPKAAPSVTLFPPSSEELQANKATLVCLISDFYPGAVTVAWKADGSPVKAGVETTKPSKQSNNKYAASSYLSLTPEQWKSHRSYSCQVTHEGSTVEKTVAPTECS
notes: pH-dependent anti-C2 antibody from a phage display library; also called WT
As to B1, the Kd in the assay with human C2 P724A was found to be 0.397 µM; with human C2 G466A it was 0.0324 µM; with human C2 V418A it was 0.008 µM; in the assay with human C2 W420A, 0.0156 µM.
